Results from PMC2711601.

Target: ribosomes of dog pancreas rough microsomes (ribosomal pellet after digitonin solubilisation) (dog (endogenous in dog pancreas microsomes))
Assay: co-sedimentation

Substance | percent in the ribosome pellet | percent pelleted with ribosomes
RAMP4 (ribosome-associated membrane protein 4, dog pancreas microsomes) (from UniProt A0A8I3PRN4 1-66) (natural protein) | 10 to 20% | –
Sec61β, subunit of the Sec61p translocon complex (dog pancreas microsomes) (from UniProt P60467 1-96) (natural protein) | – | 80%
